Assay results: patent publication US20220135638A1 (Takeda / Millennium, published 2022)
Numbered stars: 1 amine (or outer) side, 2 acyl side, 3 side chain; on linkers, the order of the positions; unused ones are H or OH. Square brackets hold non-standard residues; d marks the D form. Primed or numbered codes have the meaning given here. Side chains are listed from the residue outwards. Ends that are not written are not given here. * marks the point of attachment. C20 diacid = O=C(O)CCCCCCCCCCCCCCCCCCC(=O)*; C18 diacid = O=C(O)CCCCCCCCCCCCCCCCC(=O)*; C16 diacid = O=C(O)CCCCCCCCCCCCCCC(=O)*; γGlu = O=C(O)[C@H](CCC(=O)[*:2])N[*:1]; Iva = CC[C@](C)(N)C(=O)O; PEG3′ = not defined here; AGlu = not defined here; Aib = CC(C)(N)C(=O)O

T1: full-length human GLP-1R (GenBank NM_002062) with an N-terminal FLAG tag on HEK-293T cells (human), P43220
T1 chain: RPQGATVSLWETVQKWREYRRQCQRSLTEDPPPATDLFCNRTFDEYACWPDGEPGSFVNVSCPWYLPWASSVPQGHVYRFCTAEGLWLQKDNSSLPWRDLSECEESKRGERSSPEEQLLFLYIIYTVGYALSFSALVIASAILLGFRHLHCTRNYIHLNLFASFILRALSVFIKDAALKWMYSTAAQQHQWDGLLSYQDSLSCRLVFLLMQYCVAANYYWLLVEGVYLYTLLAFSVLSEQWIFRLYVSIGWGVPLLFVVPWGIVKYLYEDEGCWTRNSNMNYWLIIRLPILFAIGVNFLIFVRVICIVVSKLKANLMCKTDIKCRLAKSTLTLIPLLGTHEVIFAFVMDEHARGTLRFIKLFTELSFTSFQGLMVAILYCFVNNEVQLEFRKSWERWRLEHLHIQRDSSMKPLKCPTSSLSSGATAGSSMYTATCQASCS

T2: full-length human GIPR (GenBank NM_000164) with an N-terminal FLAG tag on HEK-293T cells (human), P48546
T2 chain: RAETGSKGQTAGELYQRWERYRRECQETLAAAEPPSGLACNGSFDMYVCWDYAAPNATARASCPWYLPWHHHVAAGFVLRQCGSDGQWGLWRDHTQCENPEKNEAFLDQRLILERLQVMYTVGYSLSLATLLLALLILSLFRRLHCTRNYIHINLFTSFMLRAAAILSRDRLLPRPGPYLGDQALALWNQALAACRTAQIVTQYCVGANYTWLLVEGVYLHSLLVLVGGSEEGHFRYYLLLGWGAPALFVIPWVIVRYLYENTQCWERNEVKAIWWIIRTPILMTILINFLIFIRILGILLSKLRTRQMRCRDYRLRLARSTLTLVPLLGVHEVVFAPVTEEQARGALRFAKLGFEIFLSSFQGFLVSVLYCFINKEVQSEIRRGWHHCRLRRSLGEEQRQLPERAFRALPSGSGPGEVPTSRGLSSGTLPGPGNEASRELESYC

T3: human GIPR (Genebank Accession No. U39231) on hGIPR/CRE-LUC/CHO-K1 cells (human), P48546
T3 chain: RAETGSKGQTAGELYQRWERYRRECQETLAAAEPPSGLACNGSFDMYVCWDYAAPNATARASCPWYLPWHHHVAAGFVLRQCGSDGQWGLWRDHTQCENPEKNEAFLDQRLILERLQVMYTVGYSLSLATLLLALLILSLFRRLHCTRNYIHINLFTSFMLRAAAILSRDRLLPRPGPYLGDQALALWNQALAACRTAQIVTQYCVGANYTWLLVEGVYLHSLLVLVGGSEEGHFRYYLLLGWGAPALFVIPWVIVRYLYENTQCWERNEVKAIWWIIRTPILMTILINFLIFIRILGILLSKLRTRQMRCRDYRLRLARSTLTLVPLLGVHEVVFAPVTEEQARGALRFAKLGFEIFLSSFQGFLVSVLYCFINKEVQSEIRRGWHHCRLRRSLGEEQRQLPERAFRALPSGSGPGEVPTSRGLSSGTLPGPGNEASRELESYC

T4: human GLP-1R (Genebank Accession No. NM_002062) on hGLP-1R/CRE-luc/CHO-K1 cells (human), P43220
T4 chain: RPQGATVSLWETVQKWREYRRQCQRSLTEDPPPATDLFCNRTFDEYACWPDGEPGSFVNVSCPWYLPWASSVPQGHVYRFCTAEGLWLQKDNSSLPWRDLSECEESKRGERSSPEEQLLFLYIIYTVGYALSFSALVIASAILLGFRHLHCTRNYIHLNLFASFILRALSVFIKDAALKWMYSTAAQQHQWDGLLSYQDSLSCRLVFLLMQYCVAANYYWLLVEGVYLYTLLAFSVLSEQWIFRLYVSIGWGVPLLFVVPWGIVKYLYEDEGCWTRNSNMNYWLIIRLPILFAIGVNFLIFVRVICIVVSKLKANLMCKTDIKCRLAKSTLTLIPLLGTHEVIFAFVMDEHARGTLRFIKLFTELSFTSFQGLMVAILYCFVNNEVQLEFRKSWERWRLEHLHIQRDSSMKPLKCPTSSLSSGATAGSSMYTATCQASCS

B1: Compound No. 7 (peptide)
peptide: YXEGTVVSLYSIXLDKQAQXEFVKWLLKGGPSSGAPPPSX
modifications: Aib at 2, 13, 20; Lys40(Heda-Gly-Gly-Gly-Gly-); synthesized on Sieber amide resin
B2: Compound No. 60 (peptide)
peptide: YXEGTFISDYSIALDRXHQXNFVNWXLAQRPSSGAPPPSX
modifications: MeTyr (N-methyltyrosine) at 1; Aib at 2, 17, 20; Iva at 26; Lys40(Oda-GlyGlyGlyGlyGly); synthesized on Sieber amide resin

Assays:
Assay in all cases: cell-based or functional assay
[1] = biological target: T1, full-length human GLP-1R (GenBank …)
[2] = biological target: T2, full-length human GIPR (GenBank …)
[3] = biological target: T3, human GIPR (Genebank Accession No. …)
[4] = biological target: T4, human GLP-1R (Genebank Accession No. …)
[5] = biological target: human GLP-1R (Genebank Accession No. NM_002062) on hGLP-1R/CRE-luc/CHO-K1 cells (human, UniProt P43220 24-463)

| Binder | GLP EC50 [1] [nM] | GIP EC50(pM) [2] [pM] | hGIPR (polyclonal) Reporter (EC50) [3] [nM] | hGLP-1R (Reporter gene assay)(EC50) [4] [nM] | hGLP-1R (Reporter gene assay)(EC50) [5] [nM] |
| --- | --- | --- | --- | --- | --- |
| Y[Aib]EGTFISDYSIALDR[Aib]HQ[Aib]NFVNW[Iva]LAQRPSSGAPPK([PEG3′-PEG3′-C18 diacid])SR (ends and bridges not checked) [Compound No 934] | 436 | 0.6 | – | – | – |
| Y[Aib]EGTFISDYSIALDR[Aib]HQ[Aib]NFVNW[Iva]LAQRPSSGAPPPK([PEG3′-PEG3′-C20 diacid])R (ends and bridges not checked) [Compound No 941] | 1000 | 0.4 | – | – | – |
| Y[Aib]EGTFISDYSIALDR[Aib]HQ[Aib]NFVNW[Iva]LAQRPSSGAPK([PEG3′-PEG3′-C20 diacid])PSR (ends and bridges not checked) [Compound No 929] | 46.8 | 1.8 | – | – | – |
| Y[Aib]EGTFISDYSIALDR[Aib]HQ[Aib]NFVNW[Iva]LAQRPSSGAPPPSK([PEG(2)-C20 diacid]) (ends and bridges not checked) [Compound No. 38] | – | – | 0.05 | > 1000 | – |
| Y[Aib]EGTFISDYSIALDR[Aib]HQ[Aib]NFVNW[Iva]LAQRPSSGAPPPSK([PEG(2)-C18 diacid]) (ends and bridges not checked) [Compound No. 42] | – | – | 0.03 | > 1000 | – |
| Y[Aib]EGTFISDYSIALDR[Aib]HQ[Aib]NFVNW[Iva]LAQRPSSGAPPPSK([PEG3′-PEG3′-AGlu-C16 diacid]) (ends and bridges not checked) [Compound No. 21] | – | – | 0.01 | > 1000 | – |
| Y[Aib]EGTFISDYSIALDR[Aib]HQ[Aib]NFVNW[Iva]LAQRPSSGAPPK([PEG3′-PEG3′-C16 diacid])SR (ends and bridges not checked) [Compound No 933] | 97.7 | 0.6 | – | – | – |
| Y[Aib]EGTFISDYSIALDR[Aib]HQ[Aib]NFVNW[Iva]LAQRGGGGSGGGGSK([PEG3′-PEG3′-γGlu-C18 diacid]) (ends and bridges not checked) [Compound No 943] | 1.2 | 1.5 | – | – | – |
| Y[Aib]EGTVVSLYSI[Aib]LDKQAQ[Aib]EFVKWLLAQKK([PEG(2)-Pal]) (ends and bridges not checked) [Compound No. 20] | – | – | 0.1 | > 1000 | – |
| B1 | – | – | – | – | > 1000 |
| Y[Aib]EGTFISDYSIALDR[Aib]HQ[Aib]NFVNW[Iva]LAQRPSSGAPPPSK([PEG3′-PEG3′-AGlu-C20 diacid]) (ends and bridges not checked) [Compound No. 23] | – | – | 0.1 | > 1000 | – |
| Y[Aib]EGTFISDYSIALDR[Aib]HQ[Aib]NFVNW[Iva]LAQRPSSGAPPK([PEG3′-PEG3′-C20 diacid])SR (ends and bridges not checked) [Compound No 935] | 1000 | 1 | – | – | – |
| Y[Aib]EGTFISDYSIALDR[Aib]HQ[Aib]NFVNW[Iva]LAQRPSSGAPPPK([PEG3′-PEG3′-C16 diacid])R (ends and bridges not checked) [Compound No 939] | 1000 | 0.6 | – | – | – |
| Y[Aib]EGTFISDYSIALDR[Aib]HQ[Aib]NFVNW[Iva]LAQRGGGGSK([PEG3′-PEG3′-γGlu-C18 diacid]) (ends and bridges not checked) [Compound No 942] | 4.3 | 1.4 | – | – | – |
| B2 | – | – | – | – | > 1000 |
| Y[Aib]EGTFISDYSIALDR[Aib]HQ[Aib]NFVNW[Iva]LAQRPSSGAPPPSK([PEG3′-PEG3′-AGlu-C18 diacid]) (ends and bridges not checked) [Compound No. 22] | – | – | 0.05 | > 1000 | – |
| Y[Aib]EGTFISDYSIALDR[Aib]HQ[Aib]NFVNW[Iva]LAQRPSSGAPPPK([PEG3′-PEG3′-C18 diacid])R (ends and bridges not checked) [Compound No 940] | 525 | 0.7 | – | – | – |
| Y[Aib]EGTFISDYSIALDR[Aib]HQ[Aib]NFVNW[Iva]LAQRPSSGAPPPSK([PEG(2)-C16 diacid]) (ends and bridges not checked) [Compound No. 46] | – | – | 0.01 | > 1000 | – |
